Results published in patent US20250136702A1, “HUMAN LIFR ANTIGEN BINDING PROTEIN, PREPARATION METHOD THEREFOR, AND APPLICATION THEREOF” (NONA BIOSCIENCES (SUZHOU) CO., LTD., priority 2020, published 2025).

Biological target: human LIFR expressed on the surface of 293T cells (human) (UniProt P42702)
Assay: flow cytometry on HEK293T-huLIFR cells, median fluorescence, span of the fitted curve

human LIFR expressed on the surface of 293T cells (human), sequence (P42702 45-1097): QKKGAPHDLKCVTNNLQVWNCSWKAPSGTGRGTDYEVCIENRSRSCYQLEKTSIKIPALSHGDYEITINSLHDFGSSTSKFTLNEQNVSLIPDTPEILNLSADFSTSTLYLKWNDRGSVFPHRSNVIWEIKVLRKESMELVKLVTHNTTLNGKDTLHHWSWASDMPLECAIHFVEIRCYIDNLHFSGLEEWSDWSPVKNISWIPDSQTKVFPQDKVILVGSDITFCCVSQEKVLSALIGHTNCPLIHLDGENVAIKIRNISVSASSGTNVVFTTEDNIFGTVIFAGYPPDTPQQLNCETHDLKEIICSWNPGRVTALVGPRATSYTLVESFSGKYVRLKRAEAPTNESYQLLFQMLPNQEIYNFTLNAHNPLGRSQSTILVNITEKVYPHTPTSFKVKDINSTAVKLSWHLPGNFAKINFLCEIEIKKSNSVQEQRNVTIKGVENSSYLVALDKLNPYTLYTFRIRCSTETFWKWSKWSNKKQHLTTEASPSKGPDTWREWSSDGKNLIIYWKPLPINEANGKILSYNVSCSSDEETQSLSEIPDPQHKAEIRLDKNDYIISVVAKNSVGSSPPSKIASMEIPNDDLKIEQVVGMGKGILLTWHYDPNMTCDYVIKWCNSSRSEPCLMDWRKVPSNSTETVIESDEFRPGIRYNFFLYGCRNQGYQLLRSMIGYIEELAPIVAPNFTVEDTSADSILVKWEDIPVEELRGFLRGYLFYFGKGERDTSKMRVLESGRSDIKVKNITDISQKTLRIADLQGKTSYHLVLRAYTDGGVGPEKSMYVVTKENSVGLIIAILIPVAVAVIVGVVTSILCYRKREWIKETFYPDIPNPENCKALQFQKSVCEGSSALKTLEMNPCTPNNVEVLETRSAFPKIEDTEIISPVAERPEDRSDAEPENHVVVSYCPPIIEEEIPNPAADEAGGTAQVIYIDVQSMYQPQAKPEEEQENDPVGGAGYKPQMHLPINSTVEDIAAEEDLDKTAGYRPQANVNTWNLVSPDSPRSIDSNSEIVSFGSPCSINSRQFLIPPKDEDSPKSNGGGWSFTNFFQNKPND

Span: 237
B1: PR301127 (antibody, human IgG1, kappa, V domains shown)
VH: EVQLLQSGGGLVQPGGSLRLSCAASGFTFSNYAMTWVRQAPGKGLEWVSTISGSGAFTYYADAVKGRFTISRVNSKNSLDLQMNSLRAEDTAVYYCAKGGILTGFDNWGQGTLVTVSS
VL: DIQMTQSPSTLSASVGDRVTITCRASQSISSWLAWYQQKPGKAPKLLIYKASSLESGVPSRFSGSGSGTEFSFTISSLQPDDFATYYCQQYKSFSPGGLTFGGGTKVEIKR
